From publication PMC4764080 (Cell, 2009)
Blank lines part the entries; values can stand above or below the molecule they belong to. Square brackets hold non-standard residues; d marks the D form. pY = N[C@@H](Cc1ccc(OP(=O)(O)O)cc1)C(=O)O

Key:
[1] = biological target: FGFR1-3P (trisphosphorylated cytoplasmic region of FGFR1: tyrosine kinase domain and C-terminal tail) (UniProt P11362); assay: ITC
PLCγ pY783 = assay: Tyrosine phosphorylation of PLCγ; assay type: cell-based; details: L6 myoblasts stably expressing FGFR1; 100 ng/mL FGF, 5 min, 37 °C; anti-pY783 (PLCγ) immunoblot
FGFR1-3P(VV/DD) = FGFR1-3P(VV/DD) (UniProt P11362); assay: ITC
FGFR1-3P(RD/VV) = FGFR1-3P(RD/VV) (UniProt P11362); assay: ITC
[2] = biological target: FGFR1-3P (trisphosphorylated cytoplasmic region of FGFR1: tyrosine kinase domain and C-terminal tail) (UniProt P11362); assay: SPR
[3] = biological target: FGFR1-3P (trisphosphorylated cytoplasmic region of FGFR1: tyrosine kinase domain and C-terminal tail) (UniProt P11362); assay: SPR; remark: listed apart in the source
[4] = biological target: pY766 peptide (synthetic phosphopeptide of the C-terminal region of FGFR1, TSNQEpYLDLSM); assay: SPR
[5] = biological target: T1, isolated N-SH2 domain of PLCγ (rat); assay: ITC
T1 sequence (P10686 whole entry, looked up): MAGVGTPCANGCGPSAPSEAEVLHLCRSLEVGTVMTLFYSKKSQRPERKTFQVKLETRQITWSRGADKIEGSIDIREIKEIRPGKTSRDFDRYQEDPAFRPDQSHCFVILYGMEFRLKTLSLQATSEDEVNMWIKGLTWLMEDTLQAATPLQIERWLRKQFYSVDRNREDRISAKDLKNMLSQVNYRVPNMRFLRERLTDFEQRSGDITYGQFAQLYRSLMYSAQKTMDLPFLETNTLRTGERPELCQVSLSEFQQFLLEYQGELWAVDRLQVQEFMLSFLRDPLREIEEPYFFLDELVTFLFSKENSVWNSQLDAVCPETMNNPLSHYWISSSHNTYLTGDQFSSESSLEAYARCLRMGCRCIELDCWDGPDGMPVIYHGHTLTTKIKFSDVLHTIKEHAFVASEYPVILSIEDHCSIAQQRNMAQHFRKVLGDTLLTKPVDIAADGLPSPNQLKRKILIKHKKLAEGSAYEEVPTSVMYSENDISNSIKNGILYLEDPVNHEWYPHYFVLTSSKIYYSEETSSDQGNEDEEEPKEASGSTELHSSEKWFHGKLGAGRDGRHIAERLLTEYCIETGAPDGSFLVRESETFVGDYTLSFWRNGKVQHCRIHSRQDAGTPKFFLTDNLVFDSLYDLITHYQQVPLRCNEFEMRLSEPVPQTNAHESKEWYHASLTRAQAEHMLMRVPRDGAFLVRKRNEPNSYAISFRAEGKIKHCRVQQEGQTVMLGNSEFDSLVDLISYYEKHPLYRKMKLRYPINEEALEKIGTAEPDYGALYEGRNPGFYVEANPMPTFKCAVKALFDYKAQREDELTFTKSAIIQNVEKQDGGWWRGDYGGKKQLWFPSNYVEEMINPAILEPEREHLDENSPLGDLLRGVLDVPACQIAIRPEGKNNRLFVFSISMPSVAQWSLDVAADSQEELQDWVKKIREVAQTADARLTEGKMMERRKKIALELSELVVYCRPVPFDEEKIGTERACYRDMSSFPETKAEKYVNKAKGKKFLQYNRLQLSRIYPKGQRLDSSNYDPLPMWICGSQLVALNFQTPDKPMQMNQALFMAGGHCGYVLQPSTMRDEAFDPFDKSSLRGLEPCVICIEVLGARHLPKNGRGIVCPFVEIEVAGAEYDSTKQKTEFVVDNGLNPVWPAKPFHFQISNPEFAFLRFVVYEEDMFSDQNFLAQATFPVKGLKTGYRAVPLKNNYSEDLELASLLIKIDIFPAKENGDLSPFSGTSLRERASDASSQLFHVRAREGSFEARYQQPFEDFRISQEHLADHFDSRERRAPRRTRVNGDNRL

[6] = biological target: T2, isolated C-SH2 domain of PLCγ (rat); assay: ITC
T2 sequence (P10686 whole entry, looked up): T1 sequence (P10686 whole entry, looked up)

Kd [1]: 490 nM
Molecule: isolated C-SH2 domain of PLCγ (domain or fragment)

Molecule: FGFR1(Y766F): FGFR1 mutant Y766F in the primary binding site for the N-SH2 domain, expressed in L6 myoblasts
tyrosine phosphorylation of PLCγ (PLCγ pY783): negligible tyrosine phosphorylation of PLCγ

Kd (FGFR1-3P(VV/DD)): 221 nM | Kd [1]: 33 nM | Kd (FGFR1-3P(RD/VV)): 112 nM | Kd [2]: 44 nM | Kd [3]: 142 nM | Kd [4]: 5670 nM
Molecule: isolated N-SH2 domain of PLCγ (domain or fragment)

Molecule: WT FGFR1: wild type FGFR1 stably expressed in L6 myoblasts
tyrosine phosphorylation of PLCγ (PLCγ pY783): tyrosine phosphorylation of PLCγ

Kd [5]: 433 nM | Kd [6]: 1810 nM
Molecule: {biotin‑XX}-TSNQE[pY]LDLSM-NH2 [pY766 peptide (synthetic phosphopeptide of the C-terminal region of FGFR1, TSNQEpYLDLSM)]
